From US20250376520A1 (SINGAPORE HEALTH SERVICES PTE, published 2025)

Target: human TRPM4 (transient receptor potential melastatin 4) channel, myc-tagged, expressed in HEK 293 cells (human, UniProt Q8TD43 1-1214)
Assay: cell-based or functional assay

Chain of human TRPM4 (transient receptor potential melastatin 4) channel, myc-tagged, expressed in HEK 293 cells (Q8TD43 whole entry): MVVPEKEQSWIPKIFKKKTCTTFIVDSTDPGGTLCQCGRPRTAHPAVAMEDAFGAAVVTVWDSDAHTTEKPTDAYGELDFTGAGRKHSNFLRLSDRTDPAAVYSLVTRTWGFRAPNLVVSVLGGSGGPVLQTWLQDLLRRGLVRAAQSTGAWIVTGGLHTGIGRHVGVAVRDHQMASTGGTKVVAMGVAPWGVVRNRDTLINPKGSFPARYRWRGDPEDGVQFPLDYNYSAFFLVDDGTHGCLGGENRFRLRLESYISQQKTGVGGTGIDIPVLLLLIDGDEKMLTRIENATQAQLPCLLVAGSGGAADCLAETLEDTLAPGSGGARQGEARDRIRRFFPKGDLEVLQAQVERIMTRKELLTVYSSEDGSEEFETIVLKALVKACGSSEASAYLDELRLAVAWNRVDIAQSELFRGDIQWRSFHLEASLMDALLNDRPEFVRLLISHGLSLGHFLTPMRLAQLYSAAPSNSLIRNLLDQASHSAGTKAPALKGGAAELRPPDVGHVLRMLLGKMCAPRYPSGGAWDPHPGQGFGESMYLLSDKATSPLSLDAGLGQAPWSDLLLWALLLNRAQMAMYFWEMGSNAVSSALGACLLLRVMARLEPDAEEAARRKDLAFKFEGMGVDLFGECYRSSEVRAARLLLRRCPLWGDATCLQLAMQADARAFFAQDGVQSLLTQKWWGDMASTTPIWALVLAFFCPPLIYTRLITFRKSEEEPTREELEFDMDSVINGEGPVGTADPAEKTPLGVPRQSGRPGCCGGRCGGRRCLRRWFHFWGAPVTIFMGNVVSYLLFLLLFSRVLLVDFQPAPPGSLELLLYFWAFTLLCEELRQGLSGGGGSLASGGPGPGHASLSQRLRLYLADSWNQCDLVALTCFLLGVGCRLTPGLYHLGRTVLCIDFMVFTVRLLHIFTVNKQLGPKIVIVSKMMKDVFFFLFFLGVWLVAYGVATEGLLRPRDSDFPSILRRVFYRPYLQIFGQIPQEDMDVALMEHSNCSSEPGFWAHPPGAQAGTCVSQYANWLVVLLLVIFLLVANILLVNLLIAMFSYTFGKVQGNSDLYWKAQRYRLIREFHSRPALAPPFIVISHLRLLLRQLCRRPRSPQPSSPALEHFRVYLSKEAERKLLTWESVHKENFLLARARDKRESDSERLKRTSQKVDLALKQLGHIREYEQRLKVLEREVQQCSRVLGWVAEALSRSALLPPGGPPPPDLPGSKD

B1: humanized anti-TRPM4 antibody clone A6 (VH2 + VL1), renamed M4H (antibody, human IgG1, kappa, V domains shown)
VH: QVQLQESGPGLVKPSQTLSLTCTVSGYSITSDYAWNWIRQHPGKGLEWMGYLSYSGVTSYNPSLKGRVTISRDTSKNQFSLKLSSVTAADTAVYYCARKGTYYRYEGSYWYFDVWGQGTTVTVSS
VL: DIQMTQSPSSLSASVGDRVTITCHANQNIDVWLSWYQQKPGKAPKLLIYKTSNLHTGVPSRFSGSGSGTDFTFTISSLQPEDIATYYCQQGQSYPLTFGGGTKLEIKR
IC50, dose-dependent inhibition of hypoxia-induced TRPM4 current increase: 1.04 µg/mL
